Molecular target: T1, CST with the His6-MBP tag cleaved (human), Q2NKJ3
T1 chain 1: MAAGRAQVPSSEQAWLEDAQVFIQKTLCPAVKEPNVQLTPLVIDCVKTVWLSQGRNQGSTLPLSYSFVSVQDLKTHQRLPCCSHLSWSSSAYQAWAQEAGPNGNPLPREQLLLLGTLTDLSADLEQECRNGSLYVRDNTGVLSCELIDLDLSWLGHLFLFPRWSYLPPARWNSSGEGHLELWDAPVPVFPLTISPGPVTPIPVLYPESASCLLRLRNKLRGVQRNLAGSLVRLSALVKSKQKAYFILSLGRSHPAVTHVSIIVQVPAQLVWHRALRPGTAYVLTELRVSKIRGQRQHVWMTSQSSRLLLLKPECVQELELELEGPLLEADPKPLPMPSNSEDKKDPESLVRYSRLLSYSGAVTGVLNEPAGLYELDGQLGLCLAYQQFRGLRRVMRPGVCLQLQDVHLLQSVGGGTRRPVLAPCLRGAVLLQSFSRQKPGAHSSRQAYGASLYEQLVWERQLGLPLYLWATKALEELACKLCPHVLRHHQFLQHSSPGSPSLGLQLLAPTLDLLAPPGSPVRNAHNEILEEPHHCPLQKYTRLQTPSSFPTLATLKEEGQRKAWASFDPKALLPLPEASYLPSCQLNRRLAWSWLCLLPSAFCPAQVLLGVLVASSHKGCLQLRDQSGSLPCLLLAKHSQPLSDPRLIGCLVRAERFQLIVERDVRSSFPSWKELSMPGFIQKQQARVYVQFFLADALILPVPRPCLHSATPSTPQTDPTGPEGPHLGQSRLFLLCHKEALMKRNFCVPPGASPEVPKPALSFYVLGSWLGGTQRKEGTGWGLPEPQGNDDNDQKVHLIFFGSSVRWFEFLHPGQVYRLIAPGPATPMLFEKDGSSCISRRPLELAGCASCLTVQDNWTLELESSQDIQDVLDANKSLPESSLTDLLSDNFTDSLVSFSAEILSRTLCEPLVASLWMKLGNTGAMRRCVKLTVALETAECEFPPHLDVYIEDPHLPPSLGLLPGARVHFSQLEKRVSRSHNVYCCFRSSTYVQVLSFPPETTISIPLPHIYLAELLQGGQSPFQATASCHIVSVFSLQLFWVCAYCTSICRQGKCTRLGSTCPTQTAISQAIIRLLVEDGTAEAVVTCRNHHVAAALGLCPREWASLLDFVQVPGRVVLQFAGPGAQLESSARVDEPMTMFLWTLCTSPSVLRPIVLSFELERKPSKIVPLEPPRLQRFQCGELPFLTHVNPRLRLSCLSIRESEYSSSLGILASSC
T1 chain 2: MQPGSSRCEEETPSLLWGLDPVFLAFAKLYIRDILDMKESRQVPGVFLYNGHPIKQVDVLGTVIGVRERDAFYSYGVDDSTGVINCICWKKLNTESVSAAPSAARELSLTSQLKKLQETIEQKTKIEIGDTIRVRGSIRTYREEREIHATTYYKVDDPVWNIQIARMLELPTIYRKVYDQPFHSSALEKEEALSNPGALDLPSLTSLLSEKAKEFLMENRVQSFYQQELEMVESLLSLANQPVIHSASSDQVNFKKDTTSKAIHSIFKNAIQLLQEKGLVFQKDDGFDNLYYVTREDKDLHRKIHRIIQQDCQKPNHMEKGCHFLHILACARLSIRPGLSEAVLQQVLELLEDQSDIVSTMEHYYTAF
T1 chain 3: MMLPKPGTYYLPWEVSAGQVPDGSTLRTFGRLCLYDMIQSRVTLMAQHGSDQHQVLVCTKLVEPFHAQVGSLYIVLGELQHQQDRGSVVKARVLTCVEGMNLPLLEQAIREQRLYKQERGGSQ
Assay: negative-stain EM
Conditions: remark: other sources report otherwise

stoichiometry N: 2
B1: CST with the His6-MBP tag cleaved, Q2NKJ3;Q9H668;Q86WV5 (complex)
chain 1: MAAGRAQVPSSEQAWLEDAQVFIQKTLCPAVKEPNVQLTPLVIDCVKTVWLSQGRNQGSTLPLSYSFVSVQDLKTHQRLPCCSHLSWSSSAYQAWAQEAGPNGNPLPREQLLLLGTLTDLSADLEQECRNGSLYVRDNTGVLSCELIDLDLSWLGHLFLFPRWSYLPPARWNSSGEGHLELWDAPVPVFPLTISPGPVTPIPVLYPESASCLLRLRNKLRGVQRNLAGSLVRLSALVKSKQKAYFILSLGRSHPAVTHVSIIVQVPAQLVWHRALRPGTAYVLTELRVSKIRGQRQHVWMTSQSSRLLLLKPECVQELELELEGPLLEADPKPLPMPSNSEDKKDPESLVRYSRLLSYSGAVTGVLNEPAGLYELDGQLGLCLAYQQFRGLRRVMRPGVCLQLQDVHLLQSVGGGTRRPVLAPCLRGAVLLQSFSRQKPGAHSSRQAYGASLYEQLVWERQLGLPLYLWATKALEELACKLCPHVLRHHQFLQHSSPGSPSLGLQLLAPTLDLLAPPGSPVRNAHNEILEEPHHCPLQKYTRLQTPSSFPTLATLKEEGQRKAWASFDPKALLPLPEASYLPSCQLNRRLAWSWLCLLPSAFCPAQVLLGVLVASSHKGCLQLRDQSGSLPCLLLAKHSQPLSDPRLIGCLVRAERFQLIVERDVRSSFPSWKELSMPGFIQKQQARVYVQFFLADALILPVPRPCLHSATPSTPQTDPTGPEGPHLGQSRLFLLCHKEALMKRNFCVPPGASPEVPKPALSFYVLGSWLGGTQRKEGTGWGLPEPQGNDDNDQKVHLIFFGSSVRWFEFLHPGQVYRLIAPGPATPMLFEKDGSSCISRRPLELAGCASCLTVQDNWTLELESSQDIQDVLDANKSLPESSLTDLLSDNFTDSLVSFSAEILSRTLCEPLVASLWMKLGNTGAMRRCVKLTVALETAECEFPPHLDVYIEDPHLPPSLGLLPGARVHFSQLEKRVSRSHNVYCCFRSSTYVQVLSFPPETTISIPLPHIYLAELLQGGQSPFQATASCHIVSVFSLQLFWVCAYCTSICRQGKCTRLGSTCPTQTAISQAIIRLLVEDGTAEAVVTCRNHHVAAALGLCPREWASLLDFVQVPGRVVLQFAGPGAQLESSARVDEPMTMFLWTLCTSPSVLRPIVLSFELERKPSKIVPLEPPRLQRFQCGELPFLTHVNPRLRLSCLSIRESEYSSSLGILASSC
chain 2: MQPGSSRCEEETPSLLWGLDPVFLAFAKLYIRDILDMKESRQVPGVFLYNGHPIKQVDVLGTVIGVRERDAFYSYGVDDSTGVINCICWKKLNTESVSAAPSAARELSLTSQLKKLQETIEQKTKIEIGDTIRVRGSIRTYREEREIHATTYYKVDDPVWNIQIARMLELPTIYRKVYDQPFHSSALEKEEALSNPGALDLPSLTSLLSEKAKEFLMENRVQSFYQQELEMVESLLSLANQPVIHSASSDQVNFKKDTTSKAIHSIFKNAIQLLQEKGLVFQKDDGFDNLYYVTREDKDLHRKIHRIIQQDCQKPNHMEKGCHFLHILACARLSIRPGLSEAVLQQVLELLEDQSDIVSTMEHYYTAF
chain 3: MMLPKPGTYYLPWEVSAGQVPDGSTLRTFGRLCLYDMIQSRVTLMAQHGSDQHQVLVCTKLVEPFHAQVGSLYIVLGELQHQQDRGSVVKARVLTCVEGMNLPLLEQAIREQRLYKQERGGSQ
